This is an account of results in PMC6368630.

Common to all, as to experiment: BRET (mG protein recruitment) in HEK293 cells
For test [1], the target named is Venus-tagged mGsq. The conditions noted are these: highest WNT-5A concentration shown (about log 3 ng/ml); n = 5; mean ± s.e.m.; parent: est. 101; read off a plot.
Test [2] concerns the target Venus-tagged mGsi. The conditions noted are these: mean ± s.e.m., read off a plot.
Test [3] concerns the target Venus-tagged mGs. As to conditions: highest WNT-5A concentration shown (about log 2.5-3 ng/ml); n = 8; mean ± s.e.m.; parent: est. 100.1; read off a plot.
Test [4] has as its target Venus-tagged mG13. The conditions noted are these: n = 6, mean ± s.e.m., read off a plot.

In the case of “SNAP-FZD5-Rluc8 (from UniProt Q13467) R449A”, in test [1], the response is 103 % of vehicle. For “SNAP-FZD6-Rluc8 (from UniProt O60353) R416A”, in test [2] (highest WNT-5A concentration shown (about log 3.5 ng/ml), wild type n = 7, R416A n = 6, parent: est. 104), the response is 109 % of vehicle.

In the case of “SNAP-FZD7-Rluc8 (from UniProt O75084) R470A”, the response in test [3] is 102 % of vehicle. For hFZD4-Nluc (from UniProt Q9ULV1) K436A, the response in test [4] (highest WNT-5A concentration shown (about log 3-3.5 ng/ml), parent: est. 105.5) is 106 % of vehicle; in test [4] (second-highest WNT-5A concentration shown (about log 2.5 ng/ml), parent: est. 100.0), 103 % of vehicle.

On to “mouse SMO-Rluc8 (from UniProt P56726) R455A”, for which, in test [2] (SAG alone, at the peak of the bell-shaped curve (about log -9.5 M), n = 6, parent: est. 100.9), the response is 102 % of vehicle.
